The record followed here is publication PMC5498027.

human Kif5A, first 560 amino acids, wild type, fused to EGFP and a C-terminal 6xHIS tag, sequence (Q12840 1-560): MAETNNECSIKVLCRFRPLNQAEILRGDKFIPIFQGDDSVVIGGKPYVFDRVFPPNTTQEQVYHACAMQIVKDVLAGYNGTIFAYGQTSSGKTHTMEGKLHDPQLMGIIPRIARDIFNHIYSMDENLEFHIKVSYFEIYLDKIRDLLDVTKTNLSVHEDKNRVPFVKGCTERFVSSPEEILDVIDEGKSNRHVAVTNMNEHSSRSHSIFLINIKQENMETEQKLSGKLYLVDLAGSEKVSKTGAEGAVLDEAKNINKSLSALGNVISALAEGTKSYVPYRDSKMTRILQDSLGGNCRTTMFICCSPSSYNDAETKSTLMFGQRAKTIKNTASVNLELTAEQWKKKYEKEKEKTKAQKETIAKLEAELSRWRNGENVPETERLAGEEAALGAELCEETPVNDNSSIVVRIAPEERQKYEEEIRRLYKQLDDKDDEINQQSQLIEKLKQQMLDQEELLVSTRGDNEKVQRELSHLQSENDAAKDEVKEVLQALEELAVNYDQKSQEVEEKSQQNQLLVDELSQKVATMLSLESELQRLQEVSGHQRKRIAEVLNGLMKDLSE

In the first assay the target is taxol-stabilized microtubules polymerized from bovine brain tubulin (bovine) (UniProt Q6B856).
Assay: not given
Consider “human Kif5A, first 560 amino acids, M198T, fused to EGFP and a C-terminal 6xHIS tag (from UniProt Q12840 1-560) (domain or fragment)”, for which the -fold increase of the ATPase rate by MTs (MT-stimulated over basal; malachite green phosphate assay, microtubules from 2 uM tubulin) is 42.6 fold.

For “human Kif5A, first 560 amino acids, E251K, fused to EGFP and a C-terminal 6xHIS tag (from UniProt Q12840 1-560) (domain or fragment)”, the -fold increase of the ATPase rate by MTs (MT-stimulated over basal; malachite green phosphate assay, microtubules from 2 uM tubulin) was determined as 6.2 fold.

For “human Kif5A, first 560 amino acids, wild type, fused to EGFP and a C-terminal 6xHIS tag (from UniProt Q12840 1-560) (domain or fragment)”, the -fold increase of the ATPase rate by MTs (MT-stimulated over basal; malachite green phosphate assay, microtubules from 2 uM tubulin) is 33.2 fold.

As for “human Kif5A, first 560 amino acids, S203C, fused to EGFP and a C-terminal 6xHIS tag (from UniProt Q12840 1-560) (domain or fragment)”, the -fold increase of the ATPase rate by MTs (MT-stimulated over basal; malachite green phosphate assay, microtubules from 2 uM tubulin) was 23.5 fold.

For the substance “human Kif5A, first 560 amino acids, S202N, fused to EGFP and a C-terminal 6xHIS tag (from UniProt Q12840 1-560) (domain or fragment)”, the -fold increase of the ATPase rate by MTs (MT-stimulated over basal; malachite green phosphate assay, microtubules from 2 uM tubulin) turned out to be 5.4 fold.

“human Kif5A, first 560 amino acids, R204Q, fused to EGFP and a C-terminal 6xHIS tag (from UniProt Q12840 1-560) (domain or fragment)” showed a -fold increase of the ATPase rate by MTs (MT-stimulated over basal; malachite green phosphate assay, microtubules from 2 uM tubulin) of 10.6 fold.

For a further assay the target is unchanged. The experiment in a line: co-sedimentation; microtubule pelleting assay as with ATP but with 5 mM AMPPNP: 1 uM Kif5A, tubulin 0-8 uM (WT) or 0-20 uM (mutants), 20 uM taxol, room temperature 15 min; fraction Kif5A bound by western blot densitometry. For orientation: In western blotting, separated proteins are transferred to a membrane and probed.
In the case of “human Kif5A, first 560 amino acids, wild type, fused to EGFP and a C-terminal 6xHIS tag (from UniProt Q12840 1-560) (domain or fragment)”, the percent bound at saturation was determined as 100%.
